Data reported in the supplement of paper PMC7877785.
± gives the uncertainty stated by the source.

Assay: self-splicing fitness, log relative to wild type (ln ratio); higher = more splicing; Tetrahymena group I intron in knt gene, E. coli kanamycin selection, DiMSum; sequences stand for … in CUCUCU…GGAGGGAAAAGUUAUCAGGCAUGCACCUGGUAGCUAGUCUUUAAACCAAUAGAUUGCAUCGGUUUAAAAGGCAAGACCGUCAAAUUGCGGGAAAGGGGUCAACAGCCGUUCAGUACCAAGUCUCAGGGGAAACUUUGAGAUGGCCUUGCAAAGGGUAUGGUAAUAAGCUGACGGACAUGGUCCUAACCACGCAGCCAAGUCCUAAGUCAACAGAUCUUCUGUUGAUAUGGAUGCAGUUCACAGACUAAAUGUCGGUCGGGGAAGAUGUAUUCUUCUCAUAAGAUAUAGUCGGACCUCUCCUUAAUGGGAGCUAGCGGAUGAAGUGAUGCAACACUGGAGCCGCUGGGAACUAAUUUGUAUGCGAAAGUAUAUUGAUUAGUUUUGGAGUACUCGUGGUCG
Method in brief: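 Library with all eight P1ex-region intron nucleotides randomised, intron inside the knt kanamycin-resistance gene on pET-22b(+), in E. coli BL21(DE3). Cells grew overnight at 37°C or 30°C on LB agar with or without 25 μg/mL kanamycin (plus 100 μg/mL carbenicillin, 50 μM IPTG, 0.2% rhamnose), in six replicate transformations. Pooled colonies were amplicon-sequenced on Illumina HiSeq 2500. DiMSum fitness is the error-weighted combination of wild-type-normalised replicate fold changes, kanamycin versus none.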

Sequence	self-splicing fitness (ln) (30 °C)	self-splicing fitness (ln) (37 °C)
GCUUAGCAAUAUUACGUCGC	-1.72 ± 0.19	-0.764 ± 0.28
CCGAAGCAAUAUUACGUUGC	-3.51 ± 0.21	-2.66 ± 0.22
UAUGAGCAAUAUUACGCUUG	-3.32 ± 0.4	0.0607 ± 0.25
CGUGAGCAAUAUUACGCUGG	-1.7 ± 0.15	-1.47 ± 0.18
GUAAAGCAAUAUUACGAGGA	-1.81 ± 0.1	-1.52 ± 0.15
AUUAAGCAAUAUUACGCUAG	-1.96 ± 0.16	-0.736 ± 0.18
GCUUAGCAAUAUUACGGAAU	-1.15 ± 0.062	0.0941 ± 0.077
CAGGAGCAAUAUUACGUCAC	–	-1.92 ± 0.44
UAAGAGCAAUAUUACGCCGU	–	-2.26 ± 0.43
CGCUAGCAAUAUUACGACCA	-1.86 ± 0.093	-1.24 ± 0.12
ACAGAGCAAUAUUACGAAUC	-2.92 ± 0.36	–
AGUCAGCAAUAUUACGGUUA	-1.15 ± 0.087	-0.533 ± 0.073
AUCAAGCAAUAUUACGGCUU	-2.87 ± 0.13	-1.54 ± 0.14
ACUGAGCAAUAUUACGCUAG	-1.72 ± 0.2	-3.23 ± 0.34
CCCUAGCAAUAUUACGGUUG	-3.3 ± 0.14	-2.04 ± 0.11
UAAAAGCAAUAUUACGAGUU	-2.99 ± 0.16	-1.91 ± 0.14
UCAAAGCAAUAUUACGUAUA	-3.27 ± 0.18	-2.17 ± 0.17
UUGAAGCAAUAUUACGUGCG	-0.232 ± 0.063	-0.131 ± 0.078
UCACAGCAAUAUUACGACCU	-2.97 ± 0.24	-1.16 ± 0.19
AGUAAGCAAUAUUACGUGCG	-1.27 ± 0.088	-0.396 ± 0.097
CUAAAGCAAUAUUACGUUUG	-1.47 ± 0.075	-0.672 ± 0.092
CACGAGCAAUAUUACGACCG	-0.0895 ± 0.089	0.125 ± 0.12
UGUUAGCAAUAUUACGGUAC	–	-2.68 ± 0.48
GUGGAGCAAUAUUACGUCCU	-1.24 ± 0.14	-0.219 ± 0.14
CGAUAGCAAUAUUACGGAAA	-3.34 ± 0.24	-1.53 ± 0.21
UAACAGCAAUAUUACGUGGC	-4.59 ± 0.29	-2.56 ± 0.23
CAUAAGCAAUAUUACGCCAU	-1.36 ± 0.15	-2.6 ± 0.34

Sequence	self-splicing fitness (ln) (30 °C)	self-splicing fitness (ln) (37 °C)
AUGGAGCAAUAUUACGGGCC	-2.63 ± 0.39	–
UCCUAGCAAUAUUACGCGUC	-3.53 ± 0.35	-3.53 ± 0.42
AGAAAGCAAUAUUACGUUAA	-2.23 ± 0.14	-1.44 ± 0.17
CACUAGCAAUAUUACGGAAC	–	-1.93 ± 0.22
CGUAAGCAAUAUUACGCGAA	-3.5 ± 0.24	-3.88 ± 0.39
GGACAGCAAUAUUACGUCUU	-3.29 ± 0.091	-1.9 ± 0.099
ACGAAGCAAUAUUACGUGGA	-2.7 ± 0.13	-2.69 ± 0.18
CACUAGCAAUAUUACGAUGU	-4.05 ± 0.37	-1.63 ± 0.19
UUCAAGCAAUAUUACGCGUU	-2.62 ± 0.12	-0.189 ± 0.09
UUACAGCAAUAUUACGCUAG	-0.779 ± 0.11	-0.391 ± 0.11
UAUAAGCAAUAUUACGGCUC	-1.1 ± 0.17	-0.161 ± 0.2
AGCCAGCAAUAUUACGGGGC	-3.88 ± 0.15	-3.13 ± 0.14
GAUGAGCAAUAUUACGGCAC	-0.478 ± 0.098	-0.366 ± 0.16
GUCCAGCAAUAUUACGCCGG	-2.64 ± 0.17	-2.69 ± 0.31
UAGCAGCAAUAUUACGUUGC	-2.57 ± 0.21	-1.91 ± 0.21
CACAAGCAAUAUUACGGAGU	-3.2 ± 0.13	-2.64 ± 0.15
GGUAAGCAAUAUUACGGCUG	-0.805 ± 0.14	0.356 ± 0.15
UAGCAGCAAUAUUACGCAUU	-2.38 ± 0.13	-1.08 ± 0.11
AGAAAGCAAUAUUACGGAGA	-3 ± 0.22	-2.79 ± 0.23
CUAAAGCAAUAUUACGAGCA	-3.41 ± 0.25	-1.08 ± 0.2
CACGAGCAAUAUUACGGUUC	–	-1.98 ± 0.34
UCCUAGCAAUAUUACGGCUA	–	-2.35 ± 0.27
UGAGAGCAAUAUUACGACCA	-1.91 ± 0.14	-1.14 ± 0.21
AACUAGCAAUAUUACGAAGA	-2.62 ± 0.14	-1.05 ± 0.12
GGAUAGCAAUAUUACGAUGG	-1.27 ± 0.38	–
GGUUAGCAAUAUUACGCCAU	-1.39 ± 0.38	–
GAGCAGCAAUAUUACGGUAA	-1.95 ± 0.13	-0.00417 ± 0.12

Sequence	self-splicing fitness (ln) (30 °C)	self-splicing fitness (ln) (37 °C)
AAUCAGCAAUAUUACGGAAA	-1.19 ± 0.099	0.0734 ± 0.12
CUCUAGCAAUAUUACGAAUG	-1.55 ± 0.091	-1.1 ± 0.11
CCGAAGCAAUAUUACGCUAG	-2.1 ± 0.18	-1.87 ± 0.22
UGGGAGCAAUAUUACGGCUG	-1.09 ± 0.19	-2.31 ± 0.26
GACCAGCAAUAUUACGACCC	-0.132 ± 0.14	0.75 ± 0.18
CGUCAGCAAUAUUACGAUAC	-2.65 ± 0.14	-1.38 ± 0.12
UUCGAGCAAUAUUACGCAUA	-3.18 ± 0.42	-1.39 ± 0.26
GGGAAGCAAUAUUACGUUCA	0.0857 ± 0.1	-0.473 ± 0.14
ACGAAGCAAUAUUACGAGAU	-4.36 ± 0.17	-1.79 ± 0.16
CGGUAGCAAUAUUACGUGGC	-3.4 ± 0.17	-3.09 ± 0.23
AAGUAGCAAUAUUACGUGUC	-2.83 ± 0.27	-2.4 ± 0.28
ACUGAGCAAUAUUACGCCGU	–	-2.31 ± 0.4
AGACAGCAAUAUUACGGUGC	-2.82 ± 0.18	-1.89 ± 0.18
UUAGAGCAAUAUUACGUAGU	-1.3 ± 0.21	-3.47 ± 0.42
AAUGAGCAAUAUUACGUUUG	-4.24 ± 0.2	-2.33 ± 0.19
UAUGAGCAAUAUUACGUAAC	-2.86 ± 0.36	–
ACGUAGCAAUAUUACGAUCU	-0.0721 ± 0.051	0.356 ± 0.065
UCGGAGCAAUAUUACGUACU	–	-2.6 ± 0.34
UGGGAGCAAUAUUACGCGAA	-1.59 ± 0.23	-1.67 ± 0.34
UUUAAGCAAUAUUACGCGCG	0.181 ± 0.12	-0.26 ± 0.14
UCAGAGCAAUAUUACGUAAC	-2.5 ± 0.26	–
UGCUAGCAAUAUUACGCCUA	-0.454 ± 0.15	-0.0492 ± 0.15
CGCCAGCAAUAUUACGUUCG	-1.18 ± 0.069	0.325 ± 0.086
AGCCAGCAAUAUUACGUCGU	-1.75 ± 0.072	-1.58 ± 0.086
GGGCAGCAAUAUUACGCUGA	-1.25 ± 0.12	-0.998 ± 0.15
AACGAGCAAUAUUACGCCAU	-2.91 ± 0.27	-1.52 ± 0.27
